Consider one protein from paper PMC9091645.

Substrate in the series: CCCC(=O)Oc1ccc([N+](=O)[O-])cc1
Put plainly: initial rates of p-nitrophenyl butyrate hydrolysis. Type of series: biochemical, Rhizopus arrhizus. To be noted: 30 °C, 25 mM phosphate buffer pH 8, substrate 10-100 mM.

B1: ROL (Rhizopus oryzae lipase; wild type WROL) (Rhizopus arrhizus) (protein)
chain: SDGGKVAAATTAQIQEFTKYAGIAATAYCRSVVPGNKWDCVQCQKWVPDGKIITTFTSLLSDTNGYVLRSDKQKTIYLVFRGTNSFRSAITDIVFNFSDYKPVKGAKVHAGFLSSYEQVVNDYFPVIQEQLTANPTYKVIVTGHSLGGAQALLAGMDLYQREPRLSPKNLSIFTVGGPRVGNPTFAYYVESTGIPFQRTVHKRDIVPHVPPQSFGFLHPGVESWIKSGTSNVQICTSEIETKDCSNSIVPFTSLLDHLSYFDINEGSCL
As to B1, the Km was found to be 5.56 mM, the Vmax was 2.34 µmol/min/mg, the kcat turned out to be 1.25 s⁻¹ and the specificity constant (kcat/Km) stood at 220 M⁻¹ s⁻¹.

As usually defined, the Km is the concentration of substrate that gives half-maximal velocity. The Vmax is the top rate of the reaction or transport when substrate is in excess. Usually kcat stands for the number of substrate molecules converted per active site and unit of time at saturation. By kcat/Km is commonly meant the second-order rate constant that governs catalysis at low substrate concentration.
